Measured values published in the supplement of paper PMC9170038.

The sequences below were run on K4 kissing-loop RNA reporter (assay: apparent KD of K4 kissing-loop reporter; higher = weaker reporter binding). Conditions: Eterna round: R107; input ligand: arginine 13.2 mM.
Protocol: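 RNA-MaP round R107: designed RNA switches with theophylline, tryptophan, arginine or FMN aptamers are transcribed on-chip within common flanks. They are titrated with a labelled K4 kissing-loop RNA reporter in RNA-MaP buffer (100 mM Tris pH 7.5, 80 mM KCl, 4 mM MgCl2), without ligand or with the indicated ligand. Median apparent KD per design.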
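Also: bound reporter read as fluorescence of individual clusters on recovered sequencing chips by microscopy, with normalized cluster intensities fitted with a binding model.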

Point of comparison: “GCGGUGUUAUGCCCGAGGGUAUAGUUGCCAAAGGAUAUGAUUGUUGUCAGAAGGUUGCGCUUGAUCAGUGAUGUUGGUCUCCAAC [theeternabot_sameState_KL_FMN_A_12]”, “apparent KD of K4 kissing-loop reporter” value 0.275 µM. Against it:
- UGGCGGCAAGGGUUAUUGGAAAGUAUUCGUCGAGGACCGGUACGGCCGCCACUCGAACACCAGUGAUGUUGGUCUGGUUUAAGCU [Exclusion Tryptophan A GF 22] — 2.5-fold higher, 0.69 µM
- UCGCUCGAGUAAGGAUAUCAAUAUCAAAGGUCGUAGUGAUGUUAUACCAGGCCAAUUUGGCGGUAGUGAGAAGGUACUAGCAGUU [theeternabot_sameState_KL_FMN_B_38] — within 1.5-fold, 0.294 µM
- GGAUAGGAUAGAGGAUAUGGUUUAUGCAAGAAUAACUUAUCGUGUAAAUCCAUAGGGAGUGAUGUUCCAGAAGGCUGUCCUAUCG [MatMod 12 - Jieux - Exclusion - FMN B] — within 1.5-fold, 0.201 µM
- GGAGGCCAGGCCUGCGAAGUGAUGUUUUGACGAGGACCGGUACGGCCGCCACUCGAAUGUUCUAUCAUCGUACGAACUUCUGCGU [theeternabot_exclusion_KL_Trp_A_26] — 1.5-fold higher, 0.415 µM
- AGUGUUAGGUUAGAUACCAGCCGUUCGUGAAUAGUCUUCGAACCGCCAGUGAUGUUGGCAGGCCCUUGGCAGCUAACAGAACAGA [Lagelare] — within 1.5-fold, 0.199 µM
- UGUAAGCGCGUAGAUACCAGCAGACGAGUGAUGUUCGAGAGAUUAAGGAAAAGAAAGUGAUGCCCUUGGCAGCUAAUCAUAAGCG [whbob_Ex_Theo_B_sa95] — within 1.5-fold, 0.3 µM
- GAGUCGGCACAAGGAUAUAGGUGUAGUGAUGUUAUGUCUCCUUGACUCACUCGUUACCCUCAACGUCUAGAAGGUGUGAAUGCAG [theeternabot_exclusion_KL_FMN_B_46] — within 1.5-fold, 0.24 µM
- CGCGCGCGCCGCAAGGCGCGCGCGAACGAUACCAGUAUAUAAGAAUACCCUUGGCAGCGUAAGAAAGCUAUAGUGAUGUUGUAGA [#19 K4 Theophylline A Same State] — 2.3-fold lower, 0.121 µM
- AUUUUUUUAUCAGGAUAUUAGUGUUGGUUUGUUUUGUUAGUGAUGUUGAUAUUUGUUUUAUGUAUUUAAGAAGGGAUUUAGAUGU [viuupullin] — within 1.5-fold, 0.243 µM
- AGGAGCGUGGGAUGAAAAUCGCACGCUCCUCGAGGACCGGUACGGCCGCCACUCGCUCGCGCCGAGUGAUGUUCGGCCGGCGAAC [#2 Same State - Tryptophan A Attempt #12 (HarryS)] — within 1.5-fold, 0.244 µM
- AGCAGUCACUCGAAAAACCAUCGAAGAUGGCGAGGACCGGUACGGCCGCCACUCGGAGUGAUGUUCCGAAGACUGCAAAAUAAAA [#SwitchBubble 15] — 1.6-fold higher, 0.438 µM
- AGUGAUGUUUUUUUUAAGAGUGAUGUUUUUCGAGGACCGGUACGGCCGCCACUCGAGUGAUGAGUGCGUUGUUGUGAUGUUUAGU [#11 K4 Tryptophan A Exclusion] — within 1.5-fold, 0.362 µM
- CAUUCGAAAUGCAGUGAUGUUGCAACCGAUACCAGUAUCGAAAGAUACCCUUGGCAGCGGAAAACCGCUACGUAUUUUUUGAAUG [Ex Theophylline A K4 26] — within 1.5-fold, 0.288 µM
- AGACUUCACCGAAGGAGCGACGUAGCCUAGUGAUGUUAGGCGCGAGAGAAAUCUCGUAUACGUCAGGUAGGUCGCGGUGAAGUCA [Omei KL Arginine B SS C v4] — 2.1-fold lower, 0.129 µM
- AAUGAGGACACUUGCAACAGUCCUCGAAUACGAGGACCGGUACGGCCGCCACUCGAUAACUUGCAGUGAUGUUGCAAGUAAGAAU [(T)''-(K)'-(T)'-(T1)-(T2)-(K1)-(K2)_Design2] — within 1.5-fold, 0.201 µM
- AUUUUAUUAACUGAUACCAGACUUAAUGAUUUGUAAAUUACUAGUGAUGUUAGUGAUUCUGUCCCUUGGCAGCAGUAUUUAUUUA [JR_ExcTheophyB_Sub013] — 3.2-fold lower, 0.0856 µM
- AACACUCUGGGAGUGAUGUUCUCAAAUAACCGAGGACCGGUACGGCCGCCACUCGGAAAAGAGUGAGUCCUACGAAAAGUAGGAC [Omei inspired 3] — within 1.5-fold, 0.258 µM
- AUAGAAAAGUGGCACCCUCACUAAAACAGUCGAGGACCGGUACGGCCGCCACUCGCGCGCUUUAGUGAUGUUAAAGCUAGGCGGA — within 1.5-fold, 0.228 µM
- GGACGACAGUCGGCCGCCACUCACAGCCGCCAGUGAUGUUGGAUUGUAGCGGAGUGAUGUUUCGCGAGGACCGGGACUGCAGUCC [Same State Tryptophan B GF 15] — within 1.5-fold, 0.38 µM
- AAGCCAGUGAUGUUGGCAAAAUAAACUGAAGGAGCGCGUGAAAACGCAGGUAGGUCGCAGAACCUUGCCAACUAACACGAAAGUG [Ex Arginine A K4 19] — within 1.5-fold, 0.246 µM
- UGCGCUGUGUACUGAAAUGUCCUGCGGGAUACCAGAGUCUUUUUAUUCCCUUGGCAGCUUGAGUGAUGUUUGAUGCCGUUCUUGU [frrgmullin] — 1.5-fold higher, 0.423 µM
- UGACAUUGCUCAGAUACCAGACCUGAGGAUCACCCUGGUGCCAAACGUACAAUAAUAAAUGUCCCUUGGCAGCUGAGCAAUGUCU [TheoBX 14] — 10-fold lower, 0.0276 µM
- AUUUUCAUUUUAUUAUAUAACUUUUCAGAAGGAGCGUGGAAGUUCACAGGUAGGUCGCUGAAUAUUGGACUAGUGAUGUUAGUUA [JR_Nu_SSArginiA_Sub022] — within 1.5-fold, 0.244 µM
- GUUACGCAUGGAAGGAGCGCUCUCCGGUUGAUCGACACAGUGAUGUUGUGGUUCUACCGUAAGCAGGUAGGUCGCCAUGUGUAAC [Ex Arginine B K4 14] — 1.6-fold higher, 0.449 µM
- AAAUCGUUCAGAAGGAGCGUGGAUUAUUCUUAAAUAUUUAUUACGAGUGAUGUUCGUAAUUCACAGGUAGGUCGCUGAUCGAUAA [JR_ExcArginiB_Sub003] — 2-fold lower, 0.137 µM
